Experimental data published in patent US20170101477A1 (Regeneron, published 2017).

T1: Mycx2-hLepR(ecto)-GPI anchored, on HEK293/hLEPR-GPI cells (human, UniProt P48357 22-839, GPI anchor at the C-terminus)
T1 construct: also called HEK293/Mycx2-hLepR(ecto)-GPI; not shown: N-terminal myc-myc tag
T1 sequence: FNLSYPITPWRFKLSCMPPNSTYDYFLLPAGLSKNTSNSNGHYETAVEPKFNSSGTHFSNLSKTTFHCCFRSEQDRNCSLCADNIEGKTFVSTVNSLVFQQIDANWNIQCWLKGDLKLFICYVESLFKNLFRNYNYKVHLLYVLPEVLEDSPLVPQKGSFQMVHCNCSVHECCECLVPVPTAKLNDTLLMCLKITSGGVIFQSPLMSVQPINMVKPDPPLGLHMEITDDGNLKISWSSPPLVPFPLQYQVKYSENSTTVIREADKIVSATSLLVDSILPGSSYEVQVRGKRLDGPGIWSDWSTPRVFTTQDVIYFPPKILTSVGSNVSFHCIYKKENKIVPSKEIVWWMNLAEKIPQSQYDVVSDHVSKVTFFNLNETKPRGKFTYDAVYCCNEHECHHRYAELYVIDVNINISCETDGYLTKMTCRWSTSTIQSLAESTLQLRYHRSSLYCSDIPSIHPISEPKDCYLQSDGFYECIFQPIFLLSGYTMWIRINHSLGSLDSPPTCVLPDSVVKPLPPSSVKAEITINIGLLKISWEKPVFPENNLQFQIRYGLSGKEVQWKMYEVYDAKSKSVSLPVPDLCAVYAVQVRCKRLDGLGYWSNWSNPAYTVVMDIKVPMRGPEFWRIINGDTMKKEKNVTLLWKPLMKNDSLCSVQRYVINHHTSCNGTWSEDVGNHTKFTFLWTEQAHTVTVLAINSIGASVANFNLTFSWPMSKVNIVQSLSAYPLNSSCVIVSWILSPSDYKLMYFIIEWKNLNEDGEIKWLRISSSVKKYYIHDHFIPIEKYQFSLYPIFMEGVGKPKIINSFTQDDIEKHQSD

T2: human LEPR CRH1 (D1,D2,D3)-MMH (human, UniProt P48357 22-427)
T2 construct: domain: CRH1-Ig (D1,D2,D3); Limits on human LEPR cannot be told from the printed numbers; also called CRH1-Ig (D1, D2, D3); not shown: C-terminal myc-myc hexahistidine tag (amino acids 279-306 of the construct)
T2 sequence (looked up): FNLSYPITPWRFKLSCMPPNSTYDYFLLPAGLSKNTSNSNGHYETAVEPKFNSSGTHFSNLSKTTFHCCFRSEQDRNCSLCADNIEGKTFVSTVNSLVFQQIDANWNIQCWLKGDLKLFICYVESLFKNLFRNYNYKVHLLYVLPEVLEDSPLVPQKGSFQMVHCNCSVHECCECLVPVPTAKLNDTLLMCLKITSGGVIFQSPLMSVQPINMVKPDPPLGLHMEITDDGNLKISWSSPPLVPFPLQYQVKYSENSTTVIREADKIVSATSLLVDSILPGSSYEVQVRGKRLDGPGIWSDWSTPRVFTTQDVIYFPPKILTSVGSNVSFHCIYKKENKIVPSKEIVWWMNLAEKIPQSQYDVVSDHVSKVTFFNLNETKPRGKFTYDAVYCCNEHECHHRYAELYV

T3: full length human LEPR (amino acids 1-1165 of P48357, Isoform B), on cells (human, UniProt P48357 22-1165)
T3 construct: also called hLEPR-FL; HEK293/Stat3-luc/hLEPR-FL
T3 sequence: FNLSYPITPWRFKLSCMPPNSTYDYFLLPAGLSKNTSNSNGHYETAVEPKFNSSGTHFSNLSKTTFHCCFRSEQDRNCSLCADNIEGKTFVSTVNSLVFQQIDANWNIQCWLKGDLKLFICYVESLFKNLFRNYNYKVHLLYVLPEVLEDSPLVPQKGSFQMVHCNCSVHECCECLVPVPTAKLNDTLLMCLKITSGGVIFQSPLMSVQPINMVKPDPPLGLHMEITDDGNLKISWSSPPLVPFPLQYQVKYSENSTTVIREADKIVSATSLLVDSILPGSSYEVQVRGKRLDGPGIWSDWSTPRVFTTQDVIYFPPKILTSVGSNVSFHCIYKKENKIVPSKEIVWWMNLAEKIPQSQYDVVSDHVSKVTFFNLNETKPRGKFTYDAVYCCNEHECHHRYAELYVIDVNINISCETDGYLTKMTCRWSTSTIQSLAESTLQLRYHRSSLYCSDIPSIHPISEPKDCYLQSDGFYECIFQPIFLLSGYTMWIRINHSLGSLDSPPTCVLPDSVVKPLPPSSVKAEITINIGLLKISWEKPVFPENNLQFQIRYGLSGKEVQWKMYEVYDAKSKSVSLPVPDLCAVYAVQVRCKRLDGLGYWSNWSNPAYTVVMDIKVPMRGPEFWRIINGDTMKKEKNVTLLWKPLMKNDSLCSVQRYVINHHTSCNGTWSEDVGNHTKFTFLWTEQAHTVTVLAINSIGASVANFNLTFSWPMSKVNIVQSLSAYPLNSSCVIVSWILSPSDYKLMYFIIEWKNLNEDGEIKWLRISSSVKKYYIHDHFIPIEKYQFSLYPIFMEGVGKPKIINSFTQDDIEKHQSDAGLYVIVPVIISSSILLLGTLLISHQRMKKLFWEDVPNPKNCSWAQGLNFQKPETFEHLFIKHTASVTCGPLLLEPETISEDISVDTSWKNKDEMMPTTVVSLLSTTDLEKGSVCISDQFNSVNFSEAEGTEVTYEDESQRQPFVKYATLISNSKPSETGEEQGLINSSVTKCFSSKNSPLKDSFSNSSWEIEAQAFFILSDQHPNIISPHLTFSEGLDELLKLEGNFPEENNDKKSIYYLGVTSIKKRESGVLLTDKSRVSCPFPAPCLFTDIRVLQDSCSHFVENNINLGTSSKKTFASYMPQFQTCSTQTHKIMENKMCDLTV

B1: H4H16650P2 (antibody, human IgG4, V domains shown)
VH: QVQLVESGGGVVQPGKSLRLSCVASGFTFSSDAMYWVRQAPGKGLEWVAVIYYDGNYQYYEDSVKGRFTISRDNSQNTLDLQMNSLRVDDTAVYFCARLNWDYWYLDLWGRGTLVTVSS
VL: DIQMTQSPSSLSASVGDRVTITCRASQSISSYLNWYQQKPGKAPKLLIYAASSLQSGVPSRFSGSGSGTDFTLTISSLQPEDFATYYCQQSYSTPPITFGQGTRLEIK
notes: H4H prefix means human IgG4 Fc; Classed as agonist
B2: H4H17319P2 (antibody, human IgG4, V domains shown)
VH: QVQLVESGGSVVQPGRSLRLSCAASGFTFSTYAMYWVRQTPGKGLEWVAVLYSDGSNKYYIDSVKGRFTISRDTSTNTLYLQMSSLRADDSALYYCARLNWDYWYFDLWGRGTLVTVSS
VL: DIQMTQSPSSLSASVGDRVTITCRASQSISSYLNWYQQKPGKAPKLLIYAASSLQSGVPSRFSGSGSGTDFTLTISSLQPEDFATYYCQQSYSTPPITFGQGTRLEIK
notes: human IgG4 Fc; Classed as agonist
B3: H4H16679P2 (antibody, human IgG4, V domains shown)
VH: QVQLVESGGGVVQPGRSLRLSCTASGFTFSSYAMYWVRQAPGKGLEWVSVIYYDGSYKYYADSVKGRFTISRDNSKNTLYLQMDSLRAEDTAVYYCASYNWNYWYFDFWGRGTLVTVSS
VL: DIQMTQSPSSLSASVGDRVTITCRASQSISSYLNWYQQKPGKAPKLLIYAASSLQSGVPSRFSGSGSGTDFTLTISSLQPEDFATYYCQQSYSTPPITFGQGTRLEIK
notes: as for B2
B4: H4H17321P2 (antibody, human IgG4, V domains shown)
VH: QVQLVESGGGVVQPGRSLRLSCEASGFSSSDNAMYWVRQAPGKGLEWVSVIYHDGSYKYYEDSVKGRFTIARDNSKNTLYLQMNSLRAEDTAVYYCARYNWNHWYFDVWGRGTLVTVSS
VL: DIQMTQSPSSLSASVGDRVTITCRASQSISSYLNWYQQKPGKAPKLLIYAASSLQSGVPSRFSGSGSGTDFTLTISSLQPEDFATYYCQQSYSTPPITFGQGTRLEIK
notes: as for B2
B5: H4H18446P2 (antibody, human IgG4, V domains shown)
VH: EVQLVESGGGLVQPGGSLRLSCAASGFTFSNYGMTWVRQAPGKGLEWVSAITGGGGSTYYSNSVKGRFTISRDNSKNTVYLRMNSVRAEDTAVYYCAKYKWNFVDDWGQGTTVTVSS
VL: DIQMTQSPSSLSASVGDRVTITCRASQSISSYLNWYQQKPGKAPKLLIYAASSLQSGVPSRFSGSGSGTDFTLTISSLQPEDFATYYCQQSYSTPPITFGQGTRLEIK
notes: human IgG4 Fc
B6: H4H18438P2 (antibody, human IgG4, V domains shown)
VH: QVQLVESGGGVVQPGRSLRLSCAASGFSFNTYGMHWVRQAPGKGLEWVTIIWYDGSIKYYADSVKGRFTISRDNSKNTLYLQMNSLRAEDTAVYYCARGGYSGYLYFDYWGQGTLVTVSS
VL: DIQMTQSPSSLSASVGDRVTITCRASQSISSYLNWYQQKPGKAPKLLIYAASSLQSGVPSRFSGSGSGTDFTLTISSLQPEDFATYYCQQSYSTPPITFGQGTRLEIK
notes: human IgG4 Fc; Classed as potentiator
B7: H4H18417P2 (antibody, human IgG4, V domains shown)
VH: QVQLVESGGGVVQPGRSLRLSCAASGFTFSTYGMHWVRQAPGKGLEWVSVISYDESNKYYADSVKGRFTISRDNSKNALYLQMNSLRNEDTAVYYCARDRPFGLVTGWFDPWGQGTLVTVSS
VL: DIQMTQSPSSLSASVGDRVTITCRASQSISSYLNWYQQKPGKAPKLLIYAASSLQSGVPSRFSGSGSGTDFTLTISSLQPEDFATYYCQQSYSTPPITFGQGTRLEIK
notes: as for B6
B8: H4H18445P2 (antibody, human IgG4, V domains shown)
VH: QVQLQESGPGLVKPSQTLSLTCTVSGGSISSGGDYWSWIRQLPGKGLEWIGYIYYSGSAYYNPSLKSRGTISIDTSKNQFSLKLTSVTAADTAVYFCVKLRFLEWFLGGWFGPWGQGTLVTVSS
VL: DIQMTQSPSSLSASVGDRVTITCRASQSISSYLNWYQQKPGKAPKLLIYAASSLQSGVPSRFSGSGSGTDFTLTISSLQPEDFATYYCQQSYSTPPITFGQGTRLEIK
notes: human IgG4 Fc
B9: H4H18449P2 (antibody, human IgG4, V domains shown)
VH: EVQLVESGGGLVQPGGSLRLSCVASGFTFNKYDMHWVRQTTGKGLEWVSGIDTDGDTYYPGSVKGRFTISRENAENSLYLQMNGLRVGDTAVYYCARWPWSGFYGAFDIWGQGTMVTVSS
VL: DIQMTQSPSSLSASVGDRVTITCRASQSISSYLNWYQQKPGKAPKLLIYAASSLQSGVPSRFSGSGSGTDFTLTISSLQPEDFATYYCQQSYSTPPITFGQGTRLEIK
notes: human IgG4 Fc; summary lists 74/66

molecular target: T1, Mycx2-hLepR(ecto)-GPI anchored, on …; assay: FACS, 70 nM Ab, HEK293/hLEPR-GPI

Binder | Binding Ratio
B1 | 707 fold
B2 | 1130 fold
B3 | 1080 fold
B4 | 1130 fold

molecular target: T2, human LEPR CRH1 (D1,D2,D3)-MMH; assay: Luminex, myc-captured LEPR protein
Procedure: Aliquots of microspheres with immobilized anti-myc monoclonal antibodies, prepared as described above, were added individually to 1 mL of the each of these protein supernatants. The microspheres were gently mixed, incubated for two hours at 25° C., washed twice with 1 mL of DBPS, centrifuged to remove the supernatant and finally resuspended in 1 mL of DPBS buffer.
From this mixed pool, 75 μL of microspheres were plated per well on a 96 well filter plate (Millipore, Cat. No: MSBVN1250) and mixed with 25 μL of individual anti-human LEPR monoclonal antibodies (0.5 or 5 μg/mL), incubated for two hours at 25° C. and then washed twice with 200 μL of DPBS with 0.05% Tween 20 (washing buffer). […] The Median Fluorescence intensity (MFI) of the microspheres was measured in a Luminex Analyzer.

Binder | Luminex MFI
B5 | 205 MFI

molecular target: T3, full length human LEPR (amino acids …); assay: FACS, 70 nM Ab, HEK293/Stat3-luc/hLEPR-FL

Binder | Binding Ratio
B1 | 42 fold
B2 | 47 fold
B3 | 51 fold
B4 | 46 fold

molecular target: T1, Mycx2-hLepR(ecto)-GPI anchored, on …; assay: FACS, 10 nM Ab, HEK293/hLEPR-GPI, 1 uM Leptin
Procedure: (§1) For the FACS analysis, HEK293 parental cells and HEK293/hLEPR-GPI cells were dissociated and plated onto 96-well v-bottom plates at 5×10⁵ cells/well in PBS containing 2% FBS (FACS buffer). […] Cells were subsequently fixed using BD CytoFix™ (Becton Dickinson, #554655), filtered, and analyzed on a HyperCyt Flow Cytometer (Beckman Coulter). Unstained and secondary antibody alone controls were also tested for all cell lines. The results were analyzed using ForeCyt (IntelliCyt) and FlowJo version 10 software to determine the geometric means of fluorescence for viable cells. The geometric mean of fluorescence for each sample was then normalized to the geometric mean of unstained cells to obtain relative binding per condition referred to as “binding ratios”, and these binding ratios were recorded for each antibody tested.

Binder | Binding Ratio
B6 | 2410 fold
B7 | 2600 fold
B1 | 3120 fold
B8 | 2490 fold
B3 | 2220 fold
B9 | 3110 fold

molecular target: T1, Mycx2-hLepR(ecto)-GPI anchored, on …; assay: FACS, 10 nM Ab, HEK293/hLEPR-GPI, no added Leptin
Procedure: as §1

Binder | Binding Ratio
B6 | 1490 fold
B7 | 1840 fold
B1 | 2420 fold
B8 | 2020 fold
B3 | 2060 fold
B9 | 3370 fold

molecular target: T4, human LEPR extracellular domain expressed with a C-terminal myc-myc-hexahistidine tag (hLEPR.mmh) (human, UniProt P48357 22-839); assay: SPR, mAb over preformed hLEPR-MMH:human Leptin complex
T4 construct: also called human LEPR-MMH; monomeric human LEPR
Procedure: The entire study was performed in 10 mM HEPES pH 7.4, 150 mM NaCl, 3 mM EDTA, and 0.05% v/v Surfactant Tween-20 (HBS-ET running buffer) at 25° C.

Binder | 200 nM mAb Bound (RU)
B1 | 81 RU
B2 | 92 RU
B3 | 90 RU
